From patent US20230066517A1, “Phospholipid Ether Conjugates as Cancer-Targeting Drug Vehicles” (Cellectar Biosciences, Inc., priority 2019, published 2023) come the findings set out here.

Starred links: 1 amine or outer side, 2 acyl side, 3 side chain; linkers in the order of their positions; H or OH if unused. Non-standard residues stand in square brackets, D forms with d. Residues, ends and D or L forms follow the SMILES beside them. *: point of attachment. X1 = C[N+](C)(C)CCOP(=O)([O-])OCCCCCCCCCCCCCCCCCCc1ccc(C(=O)*)cc1; Dolaproine = CO[C@@H]([C@@H]1CCCN1)[C@@H](C)C(=O)O; Dil = CC[C@H](C)[C@H](NC)[C@@H](CC(=O)O)OC; PABC = O=C(OCc1ccc(N[*:1])cc1)[*:2]; X2 = C[C@@H](N*)[C@@H](O)c1ccccc1; Cit = NC(=O)NCCC[C@H](N)C(=O)O; NMeV = CN[C@H](C(=O)O)C(C)C

Data set [1] in a line: Cyprotex Plasma Stability assay, mouse plasma. It is filed as in vitro ADME. Here is the method:
To determine whether cytotoxic PDCs are tolerated in vivo, C57BL/6 mice were dosed in the following manner: PDC-SM2 was dosed on days 0, 3 and 7 at dose levels of 0.5 mg/kg, 1.0 mg/kg, or 2.0 mg/kg; Payload alone was dosed on day 0 only at 0.25 mg/kg, 0.4 mg/kg, or 0.5 mg/kg; vehicle was dosed on day 0, 3 and 7. […] Plasma stability was measured using Cyprotex’s Plasma Stability assay. The samples were at a concentration of 1 µM and were incubated at 0, 15, 30, 60 and 120 minutes. A positive control compound which undergoes degradation in plasma was used. The percent of the compound remaining at each incubation time point was measured.

Data set [2] in a line: Cyprotex Plasma Stability assay, human plasma. It counts as in vitro ADME. Here is the method: To determine whether cytotoxic PDCs are tolerated in vivo, C57BL/6 mice were dosed in the following manner: PDC-SM2 was dosed on days 0, 3 and 7 at dose levels of 0.5 mg/kg, 1.0 mg/kg, or 2.0 mg/kg; Payload alone was dosed on day 0 only at 0.25 mg/kg, 0.4 mg/kg, or 0.5 mg/kg; vehicle was dosed on day 0, 3 and 7. […] Payload dose of 0.5 mg/kg was not tolerated, two mice died by day 4 following a single infusion and all mice were sacrificed on day 5 (FIG. 5). […] Plasma stability was measured using Cyprotex’s Plasma Stability assay. The samples were at a concentration of 1 µM and were incubated at 0, 15, 30, 60 and 120 minutes. A positive control compound which undergoes degradation in plasma was used. The percent of the compound remaining at each incubation time point was measured. […] Overall, PDCs offer a novel and unique approach to targeting small molecules to tumor cells.

Data set [3] deals with HCC70 triple negative breast cancer (TNBC) xenografts. Briefly: In vivo efficacy in TNBC xenograft model. On the set-up: species or system R2G2 mice. Here is the method:
In vivo efficacy was further assessed in R2G2 mice bearing HCC70 triple negative breast cancer (TNBC) xenografts. Three doses (1 mg/kg) given once, twice or 3 times per week for 2 weeks of CLR2000045 were assessed. CLR2000045 was administered systemically by injection of the tail vein. Each group contained 10 mice. Tumor volume was monitored for efficacy and body weight for tolerability. Survival was also monitored.
The study was initiated when group mean tumor volume reached ~200 mm^3 (Day 4). CLR2000045 was dosed IV at the following doses: 1 mg/kg on either day 5 and 12 or day 5, 8, 12 and 15 or day 5, 7, 9, 12, 14, and 16. […] Changes in body weight post treatment were measured in the (HCC70) mouse xenograft model (FIG. 11A and FIG. 11B).

The test system of data set [4] is MCF-7 breast cancer cells. Briefly: In vitro uptake and release of CLR2000045, LC/MS/MS. It counts as cell-based. How it is done:
(§1) In vitro uptake of CLR2000045 was assessed using MCF-7 breast cancer cells and normal human dermal fibroblasts (NHDF) cells and was measured via LC/MS/MS. The breast cancer cells were maintained in minimum essential medium supplemented with 10% FBS. All cells were maintained at 37° C. and 5% CO2. Cells were incubated with 1 µM of drug and reported values were the average of triplicate assessments. In vitro cytotoxicity was determined by Cell Titer-Glo® assay using MCF-7 breast cancer cells and Hs578T triple negative breast cancer cells.

Data set [5] concerns normal human dermal fibroblasts (NHDF) cells. Briefly: In vitro uptake of CLR2000045, LC/MS/MS. It counts as cell-based. As to conditions: 1 µM. Here is the method: as §1
Data set [6] concerns MCF-7 breast cancer cells. Particulars: FIG. 7.
Method: The breast cancer cells were maintained in minimum essential medium supplemented with 10% FBS. All cells were maintained at 37° C. and 5% CO2. […] In vitro cytotoxicity was determined by Cell Titer-Glo® assay using MCF-7 breast cancer cells and Hs578T triple negative breast cancer cells.
Data set [7] relates to Hs578T triple negative breast cancer cells. Briefly: In vitro cytotoxicity, Cell Titer-Glo assay. It counts as cell-based. As to conditions: FIG. 7. How it is done: as §1
Between 24 and 48 hours a steady state between uptake and release of the warhead was achieved (FIG. 6). […] Half maximal inhibitory concentration (IC50) was measured in the cell lines (TABLE 2). Plasma stability of CLR2000045 was also measured (TABLE 3).
For orientation: ATP-based viability assays read luminescence as a measure of living cells.

Another data set concerns HCT 116 xenografts. Briefly: In vivo efficacy in colorectal cancer xenograft model. As to conditions: 10 mg/kg on day 1 and 4. On the set-up: species or system athymic nude mice. How it is done:
CLR180099 was administered intravenously (IV) to healthy C57BL/6 mice to determine the maximum tolerated dose (MTD) as compared to the FLV molecule alone. The vehicle used to administer CLR180099 was PBS in this case, however any pharmaceutically suitable vehicle may be used. Each group contained 5 mice. In vivo efficacy was assessed in athymic nude mice bearing HCT 116 xenografts. The mice were flank models which were developed by injecting the hind flank of the mice with about 1x10^6 of the cells resuspended in […] of 1.2% methylcellulose. The study was initiated when group mean tumor volume reached about 120 mm^3. Tumor volume was measured using calipers - measurements of the length, width, and depth of the tumor were used to calculate the tumor volume. Two doses (2 mg/kg given 2 times or 2 mg/kg given 3 times) of CLR180099 were assessed. Each group contained 10 mice. Tumor volume was monitored for efficacy and body weight for tolerability. Total conjugated CLR180099 and free FLV were determined via mass spectrometry.
The study was initiated when group mean tumor volume reached -120 mm^3 (Day 1). CLR180099 was dosed IV at 2 mg/kg on either day 1 and 4 or day 1, 3 and 5. Docetaxel was dosed at 10 mg/kg on day 1 and 4. […] Five mice per group were dosed at each dose level. Both PDCs were tolerated up to dose of 10 mg/kg with all mice alive and showing no end organ toxicities (TABLE 5). […]

[8] abbreviates: Table 1, 1 µM, 0-120 minutes, read-out: Human T½.

On to `C=C(c1ccc(OC)c(NP(=O)(O)OP(=O)(O)OCCNC(=O)c2ccc(CCCCCCCCCCCCCCCCCCOP(=O)([O-])OCC[N+](C)(C)C)cc2)c1)c1cc(C)nc2ccccc12` [CLR2013], for which the half-life at 1 µM in data set [1] (Table 3, read-out: Mouse t½) is 1.28 h; in data set [2] (Table 3, read-out: Human t½) it was greater than 6.67 h.
In the case of `COC(=O)[C@@H]1[C@H](O)[C@]2(O)c3c(OC)cc(OCCCCNC(=O)OCC(C)(C)SSCCCCCCCCCCCCCCCCCCOP(=O)([O-])OCC[N+](C)(C)C)cc3O[C@]2(c2ccc(OC)cc2)[C@H]1c1ccccc1` [CLR1800095], the “stability in mouse plasma (in words)” value in data set [1] is given as “some instability”. Further, the half-life at 1 µM in data set [1] (Table 4, read-out: Mouse t½) is 3.32 h; in data set [2] (Table 4, read-out: Human t½), greater than 6.67 h.
What is called IC50 is the concentration that inhibits the measured activity by half. As to `C=C(c1ccc(OC)c(NC(=O)OCc2ccc(OP(=O)(O)OP(=O)(O)OCCNC(=O)c3ccc(CCCCCCCCCCCCCCCCCCOP(=O)([O-])OCC[N+](C)(C)C)cc3)cc2)c1)c1cc(C)nc2ccccc12` [CLR2000045], the “eradication of the tumor” value in data set [3] (1 mg/kg IV 3 times per week for 2 weeks (highest dose)) is reported as roughly 100%. Moreover, the “tumor volume compared to vehicle control” value in data set [3] (1 mg/kg IV, 2 highest dose groups (2x and 3x per week for 2 weeks), p≤0.05 and p≤0.01) is recorded as “statistically significant reduction in tumor volume”. The “survival (Kaplan-Meier)” value is “significant increase in survival” in data set [3] (1 mg/kg three times per week for 2 weeks, vs vehicle (p≤0.001) and 1 time per week (p≤0.05)); “significant increase” in data set [3] (1 mg/kg twice a week for two weeks, vs vehicle (p≤0.05)). In addition, the “tolerability as measured by body weight loss” value in data set [3] (two highest doses) was “well tolerated”. Besides, the half-life at 1 µM in data set [1] (Table 3, read-out: Mouse t½) was greater than 6.67 h; in data set [2] (Table 3, read-out: Human t½), greater than 6.67 h. In addition, in data set [4] (1 µM), the “uptake in tumor cells” value is “significant uptake”. Further, the “release of the warhead” value in data set [4] (at each timepoint) is “approximately 50%”. Moreover, the “uptake and release of payload, share of exposed drug” value in data set [4] (tumor cell lines) was 20-40%. Also, the “uptake in normal tissue” value in data set [5] is given as “minimal uptake”. Further, the IC50 came to 0.076 µM in data set [6] and 0.051 µM in data set [7].
In the case of `CC[C@H](C)[C@@H]([C@@H](CC(=O)N1CCC[C@H]1[C@H](OC)[C@@H](C)C(=O)N[C@H](C)[C@@H](O)c1ccccc1)OC)N(C)C(=O)[C@@H](NC(=O)[C@H](C(C)C)N(C)C(=O)OCc1ccc(NC(=O)[C@H](CCCNC(N)=O)NC(=O)[C@@H](NC(=O)c2ccc(CCCCCCCCCCCCCCCCCCOP(=O)([O-])OCC[N+](C)(C)C)cc2)C(C)C)cc1)C(C)C` [PDC-SM3] (X1-V[Cit][PABC][NMeV]V[Dil][Dolaproine]-X2), the half-life at 1 µM in data set [1] (Table 1, 1 µM, 0-120 minutes, read-out: Mouse T½) was greater than 6.67 h; in data set [2] (setting [8]), greater than 6.67 h.
Consider `CC(C)[N+](C)(CCOC(=O)C1c2ccccc2Oc2ccccc21)C(C)C` [Propantheline, reference compound], for which the half-life at 1 µM in data set [1] (Table 3, read-out: Mouse t½) came out at 0.95 h; in data set [2] (setting [8]), 0.9 h; in data set [2] (Table 3, read-out: Human t½), 1.28 h; in data set [2] (Table 4, read-out: Human t½), 0.9 h.
Turning to `CC(=O)O[C@@]12CO[C@@H]1C[C@H](O)[C@@]1(C)C(=O)[C@H](O)C3=C(C)[C@@H](OC(=O)[C@H](O)[C@@H](NC(=O)OC(C)(C)C)c4ccccc4)C[C@@](O)([C@@H](OC(=O)c4ccccc4)[C@H]21)C3(C)C` [docetaxel], the “deaths in treatment arm” value in the data set with HCT 116 xenografts is “multiple deaths starting at day 18 and ending at day 26”.
